Usually Kd stands for the concentration at which binding is half-saturated. Higher therefore signals weaker binding.

The labels stand for the following.
B1: target 2 MT 5'PFS GCC 3'PFS ACA (mixed)
RNA 1: CACCCGUGCAAAAUUGCAGGGGUCUAAAACCUUCUCCAAAUUGUUUCAUCCU
RNA 2: GGGAAUGGAUCCACAUCUACGAAUUCGCCAGGAUGAAACAAUUUGGAGAAGACAAGAUCGGAAGAGCACACGU
B2: target 2 MT 5'PFS CUG 3'PFS UCA (mixed)
RNA 1: CACCCGUGCAAAAUUGCAGGGGUCUAAAACCUUCUCCAAAUUGUUUCAUCCU
RNA 2: GGGAAUGGAUCCACAUCUACGAAUUCCUGAGGAUGAAACAAUUUGGAGAAGUCAAGAUCGGAAGAGCACACGU
B3: target 2 MT 5'PFS GUC 3'PFS CGA (mixed)
RNA 1: CACCCGUGCAAAAUUGCAGGGGUCUAAAACCUUCUCCAAAUUGUUUCAUCCU
RNA 2: GGGAAUGGAUCCACAUCUACGAAUUCGUCAGGAUGAAACAAUUUGGAGAAGCGAAGAUCGGAAGAGCACACGU
B4: target 2 MT 5'PFS CGA 3'PFS AAC (mixed)
RNA 1: CACCCGUGCAAAAUUGCAGGGGUCUAAAACCUUCUCCAAAUUGUUUCAUCCU
RNA 2: GGGAAUGGAUCCACAUCUACGAAUUCCGAAGGAUGAAACAAUUUGGAGAAGAACAGAUCGGAAGAGCACACGU
B5: target 2 MT 5'PFS AUA 3'PFS CAG (mixed)
RNA 1: CACCCGUGCAAAAUUGCAGGGGUCUAAAACCUUCUCCAAAUUGUUUCAUCCU
RNA 2: GGGAAUGGAUCCACAUCUACGAAUUCAUAAGGAUGAAACAAUUUGGAGAAGCAGAGAUCGGAAGAGCACACGU
B6: target 2 MT 5'PFS AUA 3'PFS CAA (mixed)
RNA 1: CACCCGUGCAAAAUUGCAGGGGUCUAAAACCUUCUCCAAAUUGUUUCAUCCU
RNA 2: GGGAAUGGAUCCACAUCUACGAAUUCAUAAGGAUGAAACAAUUUGGAGAAGCAAAGAUCGGAAGAGCACACGU
B7: target 2 MT 5'PFS UAA 3'PFS AGG (mixed)
RNA 1: CACCCGUGCAAAAUUGCAGGGGUCUAAAACCUUCUCCAAAUUGUUUCAUCCU
RNA 2: GGGAAUGGAUCCACAUCUACGAAUUCUAAAGGAUGAAACAAUUUGGAGAAGAGGAGAUCGGAAGAGCACACGU
B8: target 2 MT 5'PFS GGU 3'PFS UGC (mixed)
RNA 1: CACCCGUGCAAAAUUGCAGGGGUCUAAAACCUUCUCCAAAUUGUUUCAUCCU
RNA 2: GGGAAUGGAUCCACAUCUACGAAUUCGGUAGGAUGAAACAAUUUGGAGAAGUGCAGAUCGGAAGAGCACACGU
B9: target 2 MT 5'PFS UAC 3'PFS CGC (mixed)
RNA 1: CACCCGUGCAAAAUUGCAGGGGUCUAAAACCUUCUCCAAAUUGUUUCAUCCU
RNA 2: GGGAAUGGAUCCACAUCUACGAAUUCUACAGGAUGAAACAAUUUGGAGAAGCGCAGAUCGGAAGAGCACACGU
B10: target 2 MT 5'PFS CUG 3'PFS UCC (mixed)
RNA 1: CACCCGUGCAAAAUUGCAGGGGUCUAAAACCUUCUCCAAAUUGUUUCAUCCU
RNA 2: GGGAAUGGAUCCACAUCUACGAAUUCCUGAGGAUGAAACAAUUUGGAGAAGUCCAGAUCGGAAGAGCACACGU
B11: target 2 MT 5'PFS CGA 3'PFS AAA (mixed)
RNA 1: CACCCGUGCAAAAUUGCAGGGGUCUAAAACCUUCUCCAAAUUGUUUCAUCCU
RNA 2: GGGAAUGGAUCCACAUCUACGAAUUCCGAAGGAUGAAACAAUUUGGAGAAGAAAAGAUCGGAAGAGCACACGU
B12: target 2 MT 5'PFS GCC 3'PFS ACG (mixed)
RNA 1: CACCCGUGCAAAAUUGCAGGGGUCUAAAACCUUCUCCAAAUUGUUUCAUCCU
RNA 2: GGGAAUGGAUCCACAUCUACGAAUUCGCCAGGAUGAAACAAUUUGGAGAAGACGAGAUCGGAAGAGCACACGU
B13: target 2 MT 5'PFS GUC 3'PFS CGC (mixed)
RNA 1: CACCCGUGCAAAAUUGCAGGGGUCUAAAACCUUCUCCAAAUUGUUUCAUCCU
RNA 2: GGGAAUGGAUCCACAUCUACGAAUUCGUCAGGAUGAAACAAUUUGGAGAAGCGCAGAUCGGAAGAGCACACGU
B14: target 2 MT 5'PFS GUC 3'PFS CGU (mixed)
RNA 1: CACCCGUGCAAAAUUGCAGGGGUCUAAAACCUUCUCCAAAUUGUUUCAUCCU
RNA 2: GGGAAUGGAUCCACAUCUACGAAUUCGUCAGGAUGAAACAAUUUGGAGAAGCGUAGAUCGGAAGAGCACACGU
B15: target 2 MT 5'PFS UAC 3'PFS CGA (mixed)
RNA 1: CACCCGUGCAAAAUUGCAGGGGUCUAAAACCUUCUCCAAAUUGUUUCAUCCU
RNA 2: GGGAAUGGAUCCACAUCUACGAAUUCUACAGGAUGAAACAAUUUGGAGAAGCGAAGAUCGGAAGAGCACACGU
B16: target 2 MT 5'PFS CUG 3'PFS UCG (mixed)
RNA 1: CACCCGUGCAAAAUUGCAGGGGUCUAAAACCUUCUCCAAAUUGUUUCAUCCU
RNA 2: GGGAAUGGAUCCACAUCUACGAAUUCCUGAGGAUGAAACAAUUUGGAGAAGUCGAGAUCGGAAGAGCACACGU
B17: target 2 MT 5'PFS UAC 3'PFS CGG (mixed)
RNA 1: CACCCGUGCAAAAUUGCAGGGGUCUAAAACCUUCUCCAAAUUGUUUCAUCCU
RNA 2: GGGAAUGGAUCCACAUCUACGAAUUCUACAGGAUGAAACAAUUUGGAGAAGCGGAGAUCGGAAGAGCACACGU
B18: target 2 MT 5'PFS GUC 3'PFS AGU (mixed)
RNA 1: CACCCGUGCAAAAUUGCAGGGGUCUAAAACCUUCUCCAAAUUGUUUCAUCCU
RNA 2: GGGAAUGGAUCCACAUCUACGAAUUCGUCAGGAUGAAACAAUUUGGAGAAGAGUAGAUCGGAAGAGCACACGU
B19: target 2 MT 5'PFS AUA 3'PFS CAC (mixed)
RNA 1: CACCCGUGCAAAAUUGCAGGGGUCUAAAACCUUCUCCAAAUUGUUUCAUCCU
RNA 2: GGGAAUGGAUCCACAUCUACGAAUUCAUAAGGAUGAAACAAUUUGGAGAAGCACAGAUCGGAAGAGCACACGU
B20: target 2 MT 5'PFS AAU 3'PFS ACU (mixed)
RNA 1: CACCCGUGCAAAAUUGCAGGGGUCUAAAACCUUCUCCAAAUUGUUUCAUCCU
RNA 2: GGGAAUGGAUCCACAUCUACGAAUUCAAUAGGAUGAAACAAUUUGGAGAAGACUAGAUCGGAAGAGCACACGU
B21: target 2 MT 5'PFS GUC 3'PFS CGG (mixed)
RNA 1: CACCCGUGCAAAAUUGCAGGGGUCUAAAACCUUCUCCAAAUUGUUUCAUCCU
RNA 2: GGGAAUGGAUCCACAUCUACGAAUUCGUCAGGAUGAAACAAUUUGGAGAAGCGGAGAUCGGAAGAGCACACGU
B22: target 2 MT 5'PFS UAA 3'PFS AGC (mixed)
RNA 1: CACCCGUGCAAAAUUGCAGGGGUCUAAAACCUUCUCCAAAUUGUUUCAUCCU
RNA 2: GGGAAUGGAUCCACAUCUACGAAUUCUAAAGGAUGAAACAAUUUGGAGAAGAGCAGAUCGGAAGAGCACACGU
B23: target 2 MT 5'PFS UAA 3'PFS AGA (mixed)
RNA 1: CACCCGUGCAAAAUUGCAGGGGUCUAAAACCUUCUCCAAAUUGUUUCAUCCU
RNA 2: GGGAAUGGAUCCACAUCUACGAAUUCUAAAGGAUGAAACAAUUUGGAGAAGAGAAGAUCGGAAGAGCACACGU
B24: target 2 MT 5'PFS CUG 3'PFS UCU (mixed)
RNA 1: CACCCGUGCAAAAUUGCAGGGGUCUAAAACCUUCUCCAAAUUGUUUCAUCCU
RNA 2: GGGAAUGGAUCCACAUCUACGAAUUCCUGAGGAUGAAACAAUUUGGAGAAGUCUAGAUCGGAAGAGCACACGU
B25: target 1 C6G,G15C (mixed)
RNA 1: CACCCGUGCAAAAAUGCAGGGGUCUAAAACUGAGCGGAUAACCUCUCUAUGG
RNA 2: GGGAAUGGAUCCACAUCUACGAAUUCGUACCAUAGACAGGUUAUCGGCUCACCGAGAUCGGAAGAGCACACGU
B26: target 1 G5U,C6G (mixed)
RNA 1: CACCCGUGCAAAAAUGCAGGGGUCUAAAACUGAGCGGAUAACCUCUCUAUGG
RNA 2: GGGAAUGGAUCCACAUCUACGAAUUCGUACCAUAGAGAGGUUAUCGUCUCACCGAGAUCGGAAGAGCACACGU
B27: target 1 C6U,A14U (mixed)
RNA 1: CACCCGUGCAAAAAUGCAGGGGUCUAAAACUGAGCGGAUAACCUCUCUAUGG
RNA 2: GGGAAUGGAUCCACAUCUACGAAUUCGUACCAUAGAGUGGUUAUCUGCUCACCGAGAUCGGAAGAGCACACGU

This data set deals with T1, EsCas13d, nuclease-dead (Eubacterium siraeum, UniProt B0MS50, R295A;H300A;R849A;H854A).
T1 sequence: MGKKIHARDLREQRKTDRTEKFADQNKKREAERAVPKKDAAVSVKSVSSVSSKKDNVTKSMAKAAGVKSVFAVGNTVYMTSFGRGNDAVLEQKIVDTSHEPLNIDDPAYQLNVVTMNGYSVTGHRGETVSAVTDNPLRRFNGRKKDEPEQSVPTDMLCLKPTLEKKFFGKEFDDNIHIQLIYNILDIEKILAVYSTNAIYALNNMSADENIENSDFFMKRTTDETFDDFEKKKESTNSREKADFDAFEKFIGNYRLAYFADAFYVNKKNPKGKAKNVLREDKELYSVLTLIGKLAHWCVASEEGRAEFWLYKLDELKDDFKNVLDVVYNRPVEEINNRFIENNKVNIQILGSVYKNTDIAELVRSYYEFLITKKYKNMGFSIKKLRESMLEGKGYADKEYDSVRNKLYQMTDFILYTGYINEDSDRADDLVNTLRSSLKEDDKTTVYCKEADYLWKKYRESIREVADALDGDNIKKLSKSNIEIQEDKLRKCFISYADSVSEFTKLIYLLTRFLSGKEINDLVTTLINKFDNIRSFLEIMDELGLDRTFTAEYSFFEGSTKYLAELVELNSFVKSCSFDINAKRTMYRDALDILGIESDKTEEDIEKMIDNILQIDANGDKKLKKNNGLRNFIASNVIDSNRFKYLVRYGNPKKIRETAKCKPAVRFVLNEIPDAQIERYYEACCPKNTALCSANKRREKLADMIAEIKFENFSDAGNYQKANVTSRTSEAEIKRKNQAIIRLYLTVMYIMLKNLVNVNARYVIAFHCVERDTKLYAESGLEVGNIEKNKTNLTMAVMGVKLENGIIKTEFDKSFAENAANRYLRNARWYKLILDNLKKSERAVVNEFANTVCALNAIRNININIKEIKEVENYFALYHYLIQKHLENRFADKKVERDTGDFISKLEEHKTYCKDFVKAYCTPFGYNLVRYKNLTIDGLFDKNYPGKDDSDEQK
As to the kind of experiment: crRNA (strand 1, pre-loaded); Mg2+; 40 mM Tris-HCl pH 7.5, 150 mM NaCl, 6 mM MgCl2, 1 mM DTT, 0.1% Tween-20, 0.2 mg/ml BSA; 25 C; 10 min per concentration, then washed. Conditions: tags: His6-TwinStrep-SUMO cleaved; N-terminal SNAP kept (SNAP-Surface 488); label: 3' end held by stalled T7 RNA polymerase.
In turn, B1 displayed an equilibrium dissociation constant (Kd) of 10.8 ± 1.1 nM. B2 displayed a Kd of 5 ± 0.6 nM.

On to B3, for which the Kd is 8.7 ± 0.7 nM. Under B4 stands 7.5 ± 1.1 nM. As for B5, the figure is 8.4 ± 2.6 nM; as for B6, 4.6 ± 1.3 nM. Take B7: the dissociation constant Kd was found to be 4.5 ± 0.6 nM.

Regarding B8, binding was characterised by a dissociation constant (Kd) of 23 ± 4 nM. Consider B9, for which the Kd is 5.5 ± 0.8 nM. B10: binding was characterised by a dissociation constant (Kd) of 6.1 ± 0.5 nM. Under B11 stands 13 ± 5 nM; under B12, 12.2 ± 1.4 nM; under B13, 16.9 ± 1.3 nM. As for B14, the figure is 17.5 ± 2.8 nM; as for B15, 6 ± 1.9 nM; as for B16, 3.1 ± 0.4 nM. As for B17, the figure is 3.6 ± 0.5 nM. Molecule B18 registered a Kd of 16.5 ± 2.6 nM.

Molecule B19 registered a Kd of 5.4 ± 1.1 nM. As for B20, the figure is 6.2 ± 0.7 nM; as for B21, 18.3 ± 2.1 nM. Regarding B22, the Kd amounted to 3.2 ± 0.4 nM. With B23, binding was characterised by a dissociation constant (Kd) of 3.4 ± 0.6 nM.

As for B24, the Kd amounted to 6.3 ± 0.4 nM.

Take B25: binding was characterised by a dissociation constant (Kd) of 47 ± 10 nM. Under B26 stands 9.5 ± 0.32 nM; under B27, 58 ± 20 nM.
